This data set in a line: label from the status in PepcDB records.
Take “VASGYGGIRVGGPYFDDLSKGQVFDWAPGVTLSLGLAAAHQSIVGNRLRLALDSDLCAAVTGMPGPLAHPGLVCDVAIGQSTLATQRVKANLFYRGLRFHRFPAVGDTLYTRTEVVGLRANSPKPGRAPTGLAGLRMTTIDRTDRLVLDFYRCAMLPASPDWKPGAVPGDDLSRIGADAPAPAADPTAHWDGAVFRKRVPGPHFDAGIAGAVLHSTADLVSGAPELARLTLNIAATHHDWRVSGRRLVYGGHTIGLALAQATRLLPNLATVLDWESCDHTAPVHEGDTLYSELHIESAQAHADGGVLGLRSLVYAVSDSASEPDRQVLDWRFSALQF”: the protein production entry is listed as “not failed”.

Consider “MVADESITVTVEVKNTGVVAGAEVVQLYLHDKKASVSRPIKELKGFAKVYLAPGESKRVSISLNKRDLSFWDVHTNDWLAEVGEFEVLLGTSLDNIRQKATFTYQNKYEQLEHHHHHH”, for which the protein production entry is reported as “failed”.

“MEQLDAIRRLNVAIFDDAHIIETFERDDLLMLLARSGGTDVGFKLGYRLNEAAFYSAKGGVHPAHRRNGIARALLYDMLDVVAGRGYERFVYDTFPNKHPGMTVLGLDEGFEVIRAGYSAKYQDYRLRFAWTFDAA”: the protein production result is reported as “failed”.

Consider “MRNETLVSIIVPVYNSAQYLRKCIDSILAQSYTEFELLLINDGSEDHSGLICDDYAQSDNRIQVFHQENAGVSAARNLGLEKHTGEHFLFIDSDDYIQERYLEELMKYASCDFVQCSCCSEPVGNDYLFVDGNFEGSDEIKQCLLKYIYPEFTVPFGRLYKSSIQRKNKLFFDTYLYSGEDTLWVSQYLLCVHSLRVSSYIGYIYVHHVGEHLSQKSISYEHLEYTLHKLLISYSDLEKRYDFDLTGVRYSVIIYFFHRYIVYIANRNYTEIRKELEKSCANPLIKGVFYDKKYLLKGKKMKLFNWLVLHDMYSVLALYVKRWKRYLLEHHHHHH”, for which the protein production entry is recorded as “not failed”.

Regarding “MNCRKTALLKTGRVARLVLCSAMLGAAIPTMALAIGGASGAHVDYQVQGKLGEVIMNPYDIAPLTAIIKNGGYVLKDVTVRIVPKKDGQEIKYQVANKHLLTHGGIPVFGMYPDYVNTVEVEYSRLYNGKWEQAKESYTLYTPPVYTEPNATKTQKAALFSGADVKKVDKKFSDRLYFVNNFLHKAGKGTRAVWNNPTGGALEWNYYPQNFIVDTKGEVRWYMNANPIYDLKSIYNAGVMMGFKQNNDGAMSWGFGQRYVKYDIMGKEVFNRELPAGYNDFSHSMDNSPNGNYFLRVGSSNLKRADGKNVRTVRDVIIEVDPSSGLVQDEWRLFDILDPYRDVNFKVLDQGAVCLNIDASKAGHTMSAEDLAKQDANDKFGDIVGVGPGRNWAHVNSVDHDAEDDSIIISSRHQSAVIKIGRDKQIKWIMGSPEGWKKEYQGKLLTPVDSKGNKIECEAGGSKCPGYENDEGGFDWTWTQHTAFKIDSKSKGDIIYVSVFDNGDSRGMEQPALPSMKYSRAVIYKIDQKKMTVEQIWEFGKERGNGWYSPVTSLTEYQTDKDSVFVYSATAGADFDINTGAFKTDPNPYIMEFNYGSKEPAVEIQLKDTTGYQAMPFSVDKAFTK”, the protein production entry was “failed”.

Take “MTERKVSWLELFFDLIFVTAVASTTHLLLSVDNHPDKTAAYFGEYLLMVTPMFWAWVGQTMFFNRFGEKIKWPELYMLSQMFFLILMTASFDLTFSNTYYTFLIGYLGIRFITVIQYFVISKQLTGNAQKVALLLGSVFLLGVLTTATSVFFEGFARYLVMYLGIAVDIILPLFLAKTLRKVPVDFPHLAERFGLFVIITFGESIVAITTILVGHTLDLYTICYTLLGFLIICTLWASYFYSFEKIVDHHKVTHGQFLIYGHFFIIVSVMLLAVNLHLLFEGHLQRDVLLLLLFSSVAVFFISKQFVFAAHKKAEVSFSFWKDALLLLLLVGLFFVNLYINLPLFVSFVSIWICALVDLGLQFGTSRSVRM”: the protein production entry is on record as “failed”.

“MISDIRKDAEVRMDKCVEAFKTQISKIRTGRASPSLLDGIVVEYYGTPTPLRQLASVTVEDSRTLKINVFDRSMSPAVEKAIMASDLGLNPNSAGSDIRVPLPPLTEERRKDLTKIVRGEAEQARVAVRNVRRDANDKVKALLKDKEISEDDDRRSQDDVQKLTDAAIKKIEAALADKEAELMQF”: the protein production result was “not failed”.

Turning to “IAGPGLGSGVRARVLQSFTVDSSKAGLAPLEVRVLGPRGLVEPVNMVDNGDGTHTVTYTPSQEGPYMVSVKYADEEIPRSPFKVKVLPTYDASKVTASGPGLSSYGVPASLPVDFAIDARDAGEGLLAVQITDQEGKPKRAIVHDNKDGTYAVTYIPDKTGRYMIGVTYGGDDIPLSPYRIRATQTGDASKCLATGPGIASTVKTGEEVGFVVDAKTAGKGKVTCTVLTPDGTEAEADVIENEDGTYDIFYTAAKPGTYVIYVRFGGVDIPNSPFTVMATDGEVTAVEEAPVNACPPGFRPWVTEEAYVPVSDMNGLGFKPFDLVIPFAVRKGEITGEVHMPSGKTATPEIVDNKDGTVTVRYAPTEVGLHEMHIKYMGSHIPESPLQFYVNYPNSGSVSAYGPGLVYGVANKTATFTIVTEDAGEGGLDLAIEGPSKAEISCIDNKDGTCTVTYLPTLPGDYSILVKYNDKHIPGSPFTAKITDDSRRCSQVKLGSAADFLLDISETDLSSLTASIKAPSGRDEPCLLKRLPNNHIGISFIPREVGEHLVSIKKNGNHVANSPVSIMVVQSEIGDARRAKVYGRGLSEGRTFEMSDFIVDTRDAGYGGISLAVEGPSKVDIQTEDLEDGTCKVSYFPTVPGVYIVSTKFADEHVPGSPFTVKISGEGRVKESITRTSRAPSVATVGSICDLNLKIPEINSSDMSAHVTSPSGRVTEAEIVPMGKNSHCVRFVPQEMGVHTVSVKYRGQHVTGSPFQFTVGPLGEGGAHKVRAGGPGLERGEAGVPAEFSIWTREAGAGGLSIAVEGPSKAEITFDDHKNGSCGVSYIAQEPGNYEVSIKFNDEHIPESPYLVPVIAPSDDARRLTVMSLQESGLKVNQPASFAIRLNGAKGKIDAKVHSPSGAVEECHVSELEPDKYAVRFIPHENGVHTIDVKFNGSHVVGSPFKVRVGEPGQAGNPALVSAYGTGLEGGTTGIQSEFFINTTRAGPGTLSVTIEGPSKVKMDCQETPEGYKVMYTPMAPGNYLISVKYGGPNHIVGSPFKAKVTGQRLVSPGSANETSSILVESVTRSSTETCYSAIPKASSDASKVTSKGAGLSKAFVGQKSSFLVDCSKAGSNMLLIGVHGPTTPCEEVSMKHVGNQQYNVTYVVKERGDYVLAVKWGEEHIPGSPFHVTVP”, the protein production result is on record as “failed”.

As to “MPTIEDRYARLDAARWLAALAVVLLHSAAQTVSDPAAYGSHAWLAANLYDSAAHWCVPVFVMVSGALLLDPDQPHDARRFYSRRMARVCAPLLFWTLFYLAWRTALDWWDDGRLDFSFWPRKVAEGAPYYHLWYLYMIVGLYLFAPLVRLLYARSQPRARALWVVGILGVAVLDALYRRALGGGNGLFLTWFLPYLGYFVAGRLIFDGELRMPRPGLVLAASVAATAWGVSALSDSRALDLYFYDYFSVTVPLMSLAAFQLIVGSPRLPALPALPALAPLTFGIYLIHPLFLDLAHRIGAARAWRPDAWGVPAITAAVFALSALASWMLRRHRLTRRLV”, the protein production result is on record as “failed”.

For “MEESDVLISLIEILKIHQKVIDYDKFKDPEDYTPAIRSLATLELMFEYLIKESNTIFENAAVIVYTIVAKHPFFNGNKRTGYEAMNFIIEDGGYGFTSTDEEMIEFIIRVATTENEMSIEEIKEWIIRHTEKILLEHHHHHH”, the protein production result is “not failed”.

Regarding “MISRHLQNNLMSVDPASSQAMELSDVTLIEGVGNEVMVVAGVVVLILALVLAWLSTYVADSGSNQLLGAIVSAGDTSVLHLGHVDHLVAGQGNPEPTELPHPSEGNDEKAEEAGEGRGDSTGEAGAGGGVEPSLEHLLDIQGLPKRQAGAGSSSPEAPLRSEDSTCLPPSPGLITVRLKFLNDTEELAVARPEDTVGALKSKYFPGQESQMKLIYQGRLLQDPARTLRSLNITDNCVIHCHRSPPGSAVPGPSASLAPSATEPPSLGVNVGSLMVPVFVVLLGVVWYFRINYRQFFTAPATVSLVGVTVFFSFLVFGMYGR”, the protein production entry was “failed”.

With “MRTMPDKPDTWARIVAAISNPLWQGMIMAIVVSLLRILYDAKETSKRRILFEALICGSLSLVASSLIEWMTWPPSLSVAAGGTIGFLGVTAIRELVARFIGRKVDSL”, the protein production entry is “failed”.

As for “MEPNIKVQSEDLRYIVQVVTSKIKVYDIIVDPVSVKFYFFDSDNEGIDASFDYIRRELVDKGFIPFLSRDGENFIQVTRRPKQRYFGNIVNVVLLVATILSTMYVGSQYSINFVPRGSFYELRLWAYGFLFFSAPLLLILGIHESAHFLVAKRHHVKASLPFFIPFPVGIGTFGAFISLRDPLPNRKAMTEIGAAGPIAGFLTALPLLFVADYFQGVIKPIPPYYIPFKVTFPLIYQLLGLHTNFTGPIFPMVFAVWVGMFATAMNLIPAGQLDGSHILRGVLGNRANVLSYVFLAFLFGIGFFYTGWWIIAIFVVFTGLVHPPALNDFSKISKLDIVLGIVSLAMFILTFTIVPIKPA”, the protein production result is “failed”.

Turning to “FQDFEYPDYDDYRAEAFLHQQKRMECYSKAKEAYRIGKKNVATFYAQQGTLHEQKMKEANHLAAIEIFEKVNASLLPQNVLDLHGLHVDEALEHLMRVLEKKTEEFKQNGGKPYLSVITGRGNHSQGGVARIKPAVIKYLISHSFRFSEIKPGCLKVMLK”, the protein production entry is “failed”.

As for “YTEQPIDLVPTQPLPNASFDNFKLTCSNTKFADDLNQMTGFTKPASRELSVTFFPDLNGDVVAIDYRHYSASFKKGAKLLHKPIVWHINQATTKTTFKPNTWCLRCLWSTKPVDT”, the protein production result is given as “not failed”.

On to “MQMLSRIHRETCSQDVNECGMKPRPCQHRCVNTHGSYKCFCLSGHMLMPDATCVNSRTCAMINCQYSCEDTEEGPQCLCPSSGLRLAPNGRDCLDIDECASGKVICPYNRRCVNTFGSYYCKCHIGFELQYISGRYDCIDINECTMDSHTCSHHANCFNTQGSFKCKCKQGYKGNGLRCSAIPENSVKEVLRAPGTIKDRIKKLLAHKNSMKKKAKIKNVTPEPTRTPTPKVNLQPFNYEEIVSRGGNSHGGKKGNEEKMKEGLEDEKREEKALKNDIEERSLRGDVFFPKVNEAGEFGLILVQRKALTSKLEHKDLNISVDCSFNHGICDWKQDREDDFDWNPADRDNAIGFYMAVPALAGHKKDIGRLKLLLPDLQPQSNFCLLFDYRLAGDKVGKLRVFVKNSNNALAWEKTTSEDEKWKTGKIQLYQGTDATKSIIFEAERGKGKTGEIAVDGVLLVSGLCPDSLLSVDD”, for which the protein production entry is “failed”.

Consider “MERKGIFIKVFSYTIIVLLLLVGVTATLFAQQFVSYFRAMEAQQTVKSYQPLVELIQNSDRLDMQEVAGLFHYNNQSFEFYIEDKEGSVLYATPNADTSNSVRPDFLYVVHRDDNISIVAQSKAGVGLLYQGLTIRGIVMIAIMVVFSLLCAYIFARQMTTPIKALADSANKMANLKEVPPPLERKDELGALAHDMHSMYIRLKETIARLEDEIAREHELEETQRYFFAAASHELKTPIAAVSVLLEGMLENIGDYKDHSKYLRECIKMMDRQGKTISEILELVSLNDGRIVPIAEPLDIGRTVAELLPDFQTLAEANNQRFVTDIPAGQIVLSDPKLIQKALSNVILNAVQNTPQGGEVRIWSEPGAEKYRLSVLNMGVHIDDTALSKLFIPFYRIDQARSRKSGRSGLGLAIVQKTLDAMSLQYALENTSDGVLFWLDLPPTSTL”, for which the protein production entry is “failed”.

As to “MSLKYQLRFGGEGGQGVITAGEILAEAAIKEGRQAFKASTYTSQVRGGPTKVDIIIDDKEILFPYAVEGEVDFMLSTADKGYKGFRGGVKEGGIIVVEPNLVHPESEDYKKWQIFEIPIITIAKDEVGNVATQSVVALAIAAYMSKCIDLDVLKETMLHMVPAKTRDANAKAFDLGVKYATQAKPHEGHHHHHH”, the protein production entry is recorded as “not failed”.

For “MLQQQRTNSRGEKYVIGPTGAPLTLADLPPAETQRWVIRRKAEVVAAVRGGLLSLDEACDRYKLTNDEFLSWQQSIDRHGLAGLRTTRIQQYRLEHHHHHH”, the protein production entry is on record as “not failed”.

Take “MTDNTAVRRRYEKSFTERPGFTEDEIEEIREAFNLLDTDGTGTIDPKEIKCAMQSLGLDAKNPMIFRMIADLEKDGYSSIDFEEFMEVITSKLGNKDTREGIQRIFNLFDDDKTGSISLKNLKRVAKELGETLTDEELRDMIDRADSKGEGEISFEDFYTIMTKKSFL”: the protein production result is recorded as “failed”.
